From patent publication US20190022241A1 (AbbVie / Abbott, published 2019)
Each block holds one binder with its values, some of them ahead of it.

Legend:
human SEZ6L ECD-His = biological target: T1, human SEZ6L ECD-His (human, UniProt Q9BYH1 29-955); assay: ELISA on plates coated with SEZ6L protein
T1 construct: whole entry named
T1 sequence: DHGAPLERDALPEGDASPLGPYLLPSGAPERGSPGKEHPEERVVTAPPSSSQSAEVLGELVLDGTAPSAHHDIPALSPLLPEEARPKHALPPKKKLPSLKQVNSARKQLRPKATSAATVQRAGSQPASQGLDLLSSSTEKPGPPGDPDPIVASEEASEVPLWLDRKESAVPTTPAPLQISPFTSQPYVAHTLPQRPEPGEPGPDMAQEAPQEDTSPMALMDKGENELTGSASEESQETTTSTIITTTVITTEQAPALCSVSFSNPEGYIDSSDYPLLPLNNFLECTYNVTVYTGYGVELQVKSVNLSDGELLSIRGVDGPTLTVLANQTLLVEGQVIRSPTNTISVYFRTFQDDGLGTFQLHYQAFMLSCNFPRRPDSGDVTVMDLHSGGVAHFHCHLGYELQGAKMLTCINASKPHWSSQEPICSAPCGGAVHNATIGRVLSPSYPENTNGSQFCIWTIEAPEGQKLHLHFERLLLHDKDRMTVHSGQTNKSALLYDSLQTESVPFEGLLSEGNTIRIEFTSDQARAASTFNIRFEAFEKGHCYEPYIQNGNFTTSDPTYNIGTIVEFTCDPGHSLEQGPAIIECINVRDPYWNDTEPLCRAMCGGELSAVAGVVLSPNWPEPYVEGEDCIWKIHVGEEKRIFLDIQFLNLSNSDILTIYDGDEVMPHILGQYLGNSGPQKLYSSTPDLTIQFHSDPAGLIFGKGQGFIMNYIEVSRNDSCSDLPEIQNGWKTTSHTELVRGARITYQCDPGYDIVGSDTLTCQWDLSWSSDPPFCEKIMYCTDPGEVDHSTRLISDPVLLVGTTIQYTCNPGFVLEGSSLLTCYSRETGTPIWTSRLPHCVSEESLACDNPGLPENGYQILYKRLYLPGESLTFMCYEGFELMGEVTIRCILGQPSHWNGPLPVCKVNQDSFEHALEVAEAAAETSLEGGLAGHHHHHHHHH

hSEZ6-ECD-His = biological target: T2, hSEZ6-ECD-His (human, UniProt Q53EL9 20-925); assay: bio-layer interferometry (ForteBio RED) or surface plasmon resonance (Biacore 2000) on human SEZ6-His; the table does not say which; column Hu Affinity (Kd, nM)
T2 construct: the whole entry is named; also called recombinant SEZ6-His; human recombinant SEZ6-His
From the text: (§1) Various methods were used to analyze the binding and immunochemical characteristics of selected SEZ6 modulators generated as set forth above.

[1] = biological target: T3, rat SEZ6 on RIN-m5F cells (rat, UniProt Q7TSK2 20-991 (mouse entry)); assay: flow cytometry, RIN-m5F cells, 5 ug/mL antibody
T3 construct: endogenous on RIN-m5F cells; also called rSEZ6
T3 chain: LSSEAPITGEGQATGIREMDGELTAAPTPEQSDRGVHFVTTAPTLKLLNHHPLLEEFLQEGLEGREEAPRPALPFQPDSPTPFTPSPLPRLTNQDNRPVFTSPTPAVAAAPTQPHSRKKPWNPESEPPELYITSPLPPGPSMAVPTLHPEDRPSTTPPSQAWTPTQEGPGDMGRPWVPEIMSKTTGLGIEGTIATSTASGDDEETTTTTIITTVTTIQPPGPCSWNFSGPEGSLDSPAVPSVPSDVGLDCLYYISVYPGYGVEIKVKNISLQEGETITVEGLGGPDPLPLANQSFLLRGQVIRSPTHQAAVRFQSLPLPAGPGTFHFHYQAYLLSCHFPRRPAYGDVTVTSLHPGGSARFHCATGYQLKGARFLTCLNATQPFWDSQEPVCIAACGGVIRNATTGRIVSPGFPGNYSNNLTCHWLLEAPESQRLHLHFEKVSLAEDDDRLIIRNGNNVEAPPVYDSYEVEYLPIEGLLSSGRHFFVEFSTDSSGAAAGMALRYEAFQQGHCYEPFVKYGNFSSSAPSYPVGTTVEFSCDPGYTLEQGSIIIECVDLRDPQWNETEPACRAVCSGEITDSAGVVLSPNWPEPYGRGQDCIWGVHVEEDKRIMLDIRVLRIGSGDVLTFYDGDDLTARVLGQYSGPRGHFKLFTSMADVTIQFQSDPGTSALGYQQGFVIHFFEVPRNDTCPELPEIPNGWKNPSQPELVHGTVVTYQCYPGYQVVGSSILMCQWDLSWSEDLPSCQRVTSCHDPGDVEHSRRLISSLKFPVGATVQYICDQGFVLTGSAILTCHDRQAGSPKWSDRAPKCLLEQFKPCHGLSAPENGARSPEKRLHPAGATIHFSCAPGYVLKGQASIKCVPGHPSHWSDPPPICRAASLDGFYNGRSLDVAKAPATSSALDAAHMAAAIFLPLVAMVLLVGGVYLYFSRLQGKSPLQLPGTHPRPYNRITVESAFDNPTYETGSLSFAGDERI
Method: (§2) Briefly 1×10⁵ cells per well of Neuro2a, RIN-5mF, or yeast displaying cynomolgus SEZ6 cells were incubated for 30 minutes with 50 μL PBS (2% FCS) buffer with 5 μg/mL antibody. […] After incubating for 15 minutes cells were washed twice with the PBS buffer and re-suspended in the same with DAPI for flow cytometry analysis of Neuro2a and Rin-m5F or buffer without DAPI for flow cytometric analysis of yeast cells with cSEZ6.

human SEZ6L2 ECD-His [2] = biological target: T4, human SEZ6L2 ECD-His (human, UniProt Q6UXD5 28-843); assay: mark of Table 5 for antibodies that bind SEZ6L2
T4 construct: whole entry named
T4 sequence (Q6UXD5 other isoform, or with tags, fused parts or gaps): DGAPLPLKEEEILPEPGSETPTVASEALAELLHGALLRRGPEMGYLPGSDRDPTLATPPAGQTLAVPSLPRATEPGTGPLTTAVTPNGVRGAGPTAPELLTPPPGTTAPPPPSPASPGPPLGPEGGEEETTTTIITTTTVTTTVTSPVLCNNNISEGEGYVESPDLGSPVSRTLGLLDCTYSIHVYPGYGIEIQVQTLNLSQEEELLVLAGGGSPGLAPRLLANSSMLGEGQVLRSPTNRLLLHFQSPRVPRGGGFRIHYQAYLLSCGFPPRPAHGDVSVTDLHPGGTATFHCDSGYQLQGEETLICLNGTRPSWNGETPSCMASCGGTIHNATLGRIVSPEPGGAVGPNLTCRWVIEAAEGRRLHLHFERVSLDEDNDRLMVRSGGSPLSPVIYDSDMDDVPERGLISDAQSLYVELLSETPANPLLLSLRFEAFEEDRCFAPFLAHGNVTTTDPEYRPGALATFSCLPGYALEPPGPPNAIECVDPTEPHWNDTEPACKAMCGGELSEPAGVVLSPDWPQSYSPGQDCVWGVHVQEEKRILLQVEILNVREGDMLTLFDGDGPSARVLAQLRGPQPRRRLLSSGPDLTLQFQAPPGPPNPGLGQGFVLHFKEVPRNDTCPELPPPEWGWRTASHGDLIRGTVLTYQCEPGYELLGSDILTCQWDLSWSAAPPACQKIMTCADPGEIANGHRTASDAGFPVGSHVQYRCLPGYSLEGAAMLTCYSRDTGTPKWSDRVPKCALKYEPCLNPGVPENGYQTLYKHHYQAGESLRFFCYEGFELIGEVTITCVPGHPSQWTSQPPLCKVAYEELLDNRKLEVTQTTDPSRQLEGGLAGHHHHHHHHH

[3] = biological target: T5, mouse SEZ6 on Neuro2a cells (mouse, UniProt Q7TSK2 20-991); assay: flow cytometry, Neuro2a cells, 5 ug/mL antibody
T5 construct: endogenous on Neuro2a cells; also called murine SEZ6; mSEZ6
Method: as §2

[4] = biological target: T6, extracellular domain of cynomolgus SEZ6 on yeast (cynomolgus, UniProt Q53EL9 23-925 (human entry)); assay: flow cytometry, yeast displaying cynomolgus SEZ6 ECD, 5 ug/mL antibody
T6 construct: yeast display; the whole entry is named; also called cSEZ6; cynomolgus SEZ6 ECD
T6 chain: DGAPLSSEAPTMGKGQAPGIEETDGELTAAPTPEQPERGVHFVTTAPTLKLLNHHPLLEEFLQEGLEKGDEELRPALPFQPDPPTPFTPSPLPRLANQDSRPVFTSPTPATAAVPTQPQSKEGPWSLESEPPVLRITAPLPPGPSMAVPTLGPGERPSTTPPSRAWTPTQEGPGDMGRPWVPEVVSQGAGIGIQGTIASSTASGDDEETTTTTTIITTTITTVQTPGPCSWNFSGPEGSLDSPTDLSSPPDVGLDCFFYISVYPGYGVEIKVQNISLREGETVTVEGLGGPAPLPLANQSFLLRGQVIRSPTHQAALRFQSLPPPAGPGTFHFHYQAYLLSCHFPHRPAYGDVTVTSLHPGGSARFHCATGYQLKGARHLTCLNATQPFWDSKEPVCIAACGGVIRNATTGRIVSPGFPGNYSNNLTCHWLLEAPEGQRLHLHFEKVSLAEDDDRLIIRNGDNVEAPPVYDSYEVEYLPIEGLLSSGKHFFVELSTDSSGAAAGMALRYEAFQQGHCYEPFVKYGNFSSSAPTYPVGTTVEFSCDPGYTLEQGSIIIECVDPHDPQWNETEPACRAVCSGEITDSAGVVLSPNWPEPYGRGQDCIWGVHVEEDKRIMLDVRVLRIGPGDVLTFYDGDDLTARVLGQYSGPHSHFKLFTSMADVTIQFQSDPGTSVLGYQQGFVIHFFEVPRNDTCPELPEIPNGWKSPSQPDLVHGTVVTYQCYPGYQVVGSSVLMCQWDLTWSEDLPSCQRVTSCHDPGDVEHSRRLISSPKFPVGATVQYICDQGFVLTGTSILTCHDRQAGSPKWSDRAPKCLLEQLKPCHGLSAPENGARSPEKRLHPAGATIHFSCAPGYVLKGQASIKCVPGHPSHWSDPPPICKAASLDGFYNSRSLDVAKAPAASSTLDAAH
Method: as §2

human SEZ6L2 ECD-His [5] = biological target: T4, human SEZ6L2 ECD-His; assay: ELISA on plates coated with SEZ6L2 protein
[6] = biological target: T3, rat SEZ6 on RIN-m5F cells; assay: flow cytometry on RIN-m5F cells expressing rat SEZ6, verified by BLI or SPR on rat SEZ6-His
Method: as §2
To verify the cross reactivity data above for rat SEZ6 and to determine the affinity and kinetic constants kₒₙ and koff of the selected effectors, either bio-layer interferometry analysis on a ForteBio RED (ForteBio, Inc.) or surface plasmon resonance on a Biacore 2000 (GE Healthcare) were conducted.

[7] = biological target: T5, mouse SEZ6 on Neuro2a cells; assay: flow cytometry on Neuro2a cells expressing mouse SEZ6
Method: as §2

rSEZ6-ECD-His = biological target: T7, rSEZ6-ECD-His (rat, UniProt Q7TSK2 20-922 (mouse entry)); assay: bio-layer interferometry (ForteBio RED) or surface plasmon resonance (Biacore 2000) on rat SEZ6-His; the table does not say which; column Rat XR (Kd, nM)
T7 construct: the whole entry is named; also called rat recombinant SEZ6-His; rat SEZ6 ECD
T7 chain: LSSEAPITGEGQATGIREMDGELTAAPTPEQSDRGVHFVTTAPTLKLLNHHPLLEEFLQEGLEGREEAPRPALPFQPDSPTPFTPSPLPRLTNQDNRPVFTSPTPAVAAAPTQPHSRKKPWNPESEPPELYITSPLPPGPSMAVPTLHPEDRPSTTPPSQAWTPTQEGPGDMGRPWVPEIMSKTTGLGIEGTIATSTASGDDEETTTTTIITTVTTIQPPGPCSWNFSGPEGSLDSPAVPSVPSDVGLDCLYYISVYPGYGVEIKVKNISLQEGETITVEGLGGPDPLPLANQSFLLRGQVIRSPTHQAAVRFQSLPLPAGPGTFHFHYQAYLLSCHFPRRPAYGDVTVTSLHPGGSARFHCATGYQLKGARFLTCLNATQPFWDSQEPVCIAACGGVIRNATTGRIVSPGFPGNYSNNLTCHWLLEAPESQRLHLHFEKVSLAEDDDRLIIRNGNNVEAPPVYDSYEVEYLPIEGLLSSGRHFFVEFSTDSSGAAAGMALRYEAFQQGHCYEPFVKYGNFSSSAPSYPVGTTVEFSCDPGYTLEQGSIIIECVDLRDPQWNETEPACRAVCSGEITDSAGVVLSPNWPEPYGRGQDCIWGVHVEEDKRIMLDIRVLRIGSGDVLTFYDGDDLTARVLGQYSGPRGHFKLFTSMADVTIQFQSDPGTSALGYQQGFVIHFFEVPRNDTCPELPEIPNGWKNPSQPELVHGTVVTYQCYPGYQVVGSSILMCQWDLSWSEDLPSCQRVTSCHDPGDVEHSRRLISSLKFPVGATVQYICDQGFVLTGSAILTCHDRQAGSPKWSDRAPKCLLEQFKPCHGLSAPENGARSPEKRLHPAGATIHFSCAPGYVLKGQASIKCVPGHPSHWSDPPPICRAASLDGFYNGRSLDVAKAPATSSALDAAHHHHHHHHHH
From the text: as §1

binding result (human SEZ6L ECD-His): no binding (tested: 1 µg/mL)
Kd (hSEZ6-ECD-His): 5.3 nM
binding result [1]: binds
binding result (human SEZ6L2 ECD-His [2]): binds
binding result [3]: binds
B1: SC17.19 (antibody, V domains shown)
VH: DVQLQESGPGLVKPSQSLSVTCTVTGYSITSSYTWNWIRQFPGNKLEWMGYIHYSGSTNYNPSLRSRISITRDTSKNQFFLQLNSVTTEDTATYYCARSRYYYDAYGFAYWGQGTLVTVSA
VL: DIVLTQSPASLAVSLGQRAAISCKPSQSVDYDGDSYMNWYQQKPGQPPKLLIYAASNLESGIPARFSGSGSGTDFTLNIHPVEEEDAATYYCHQINDDPWTFGGGTKLK
notes: murine mAb

binding result (human SEZ6L ECD-His): no binding (tested: 1 µg/mL)
binding result [4]: binds
Kd (hSEZ6-ECD-His): 5.1 nM
binding result (human SEZ6L2 ECD-His [5]): no binding (tested: 1 µg/mL)
binding result [3]: binds
binding result [6]: no binding (tested: 5 µg/mL)
B2: SC17.24 (antibody, V domains shown)
VH: QVQLQQSDAELVKPGASVKISCKVSGYTFTDHTIHWMKQRPEQGLEWIGYIYPRDGSTKYNEEFKGKATLTADKSSSTAYMQLNSLTSEDSAVYFCARSYSNYFDYWGQGTTLTVSS
VL: DIVMSQSPSSLAVSVGEKVTMSCKSSQSLLYSSNQKSYLAWYQQKPGQSPKLLIYWASTRESGVPDRFTGSGSGTDFTLTISSVQAEDLAVYYCKQSYNLRTFGGGTKLEIK
notes: murine mAb

binding result (human SEZ6L ECD-His): no binding (tested: 1 µg/mL)
binding result [4]: binds
Kd (hSEZ6-ECD-His): 6.3 nM
binding result (human SEZ6L2 ECD-His [5]): no binding (tested: 1 µg/mL)
binding result [7]: no binding (tested: 5 µg/mL)
binding result [6]: no binding (tested: 5 µg/mL)
B3: SC17.36 (antibody, V domains shown)
VH: EVQLQESGPSLVKPSQSQSLTCSVTGDSITSDYWNWIRKFPGKKVEYMGYINYSGSTYYNPSLKSRISITRDTSKNQYYLQLNSVTSEDTATYYCARTSYYNKFLPFAYWGQGTLVTVSA
VL: QIVLTQSPALMSASPGEKVTMTCSASSSVSYMYWYQQKPRSSPKPWIYLTSNLASGVPARFSGSGSGTSYSLTISSMEAEDAATYYCQQWSSNPPTFGGGTKLEIK
notes: murine mAb

binding result (human SEZ6L ECD-His): no binding (tested: 1 µg/mL)
Kd (rSEZ6-ECD-His): 31 nM
Kd (hSEZ6-ECD-His): 22.1 nM
binding result [1]: binds
binding result [7]: no binding (tested: 5 µg/mL)
binding result (human SEZ6L2 ECD-His [2]): binds
B4: SC17.28 (antibody, V domains shown)
VH: QVHLPQSRPELVKPGASVKISCKASGYGFTRSYIHWVKQRPGQGLEWIGYISSGSGGTTYNQKFKGKASLTADNPSSTAYMHLSSLTSEDSAIYFCARGGVRYFDVWGAGTTVTVSS
VL: DILLTQSPAILSVSPGEGVSFSCRASQSIGTSIHWYQQRTNGSPRLLIKYASESISGIPSRFSGSGSGTDFTLRINSLESEDIADYYCQQSNSWPLTFGAGTKLELK
notes: murine mAb
